Test results from patent US8957190B2, “Use of heat-resistant biotin-binding protein, and solid support having the protein attached thereto” (Japan Tobacco Inc., priority 2006, dated 2015).

Experiments:
[1] = Kinetic analysis of tamavidin 2-biotin interaction using a Biacore 3000 biosensor (surface plasmon resonance); format: binding; conditions: Biacore 3000, 25° C.
Experimental: Kinetic Analysis of Tamavidin 2 (TM2)-Biotin Interaction Using a Biacore Biosensor
Highly-purified BSA (2 mg, Sigma) and NHS-biotin (1 mg, Pierce) were dissolved in 1 ml of 50 mM sodium borate pH 8.0 and incubated at 4° C. for 2 hours. The NHS-biotin (EZ-Link NHS-LC-LC-Biotin) had been dissolved in a small volume of DMSO before addition. This solution was introduced into a dialysis tube (MWCO 6-8,000) and dialyzed overnight at 4° C. against 50 mM sodium carbonate pH 6.7. The biotin-BSA conjugate thus prepared (MW 67 kDa, 30 μM) was used as a ligand (a substance immobilized on a sensor chip) for a Biacore® biosensor. On the other hand, recombinant tamavidin 2 was prepared as an analyte (a substance flowing through channels) and analyzed for intermolecular interactions using a Biacore® 3000 (a biosensor designed on the principle of surface plasmon resonance, Biacore Inc.). Biotin-BSA and BSA alone (serving as a negative control) were each immobilized on CM5 sensor chips by amine coupling techniques. Their immobilized amount was adjusted to around 200 RU. BSA-immobilized chips were placed in flow cells 1 and 3, while biotin-BSA-immobilized chips were placed in flow cells 2 and 4. Tamavidin 2 was loaded into flow cells 1 and 2, while streptavidin was loaded into flow cells 3 and 4, each being loaded at a flow rate of 20 μl/min for 2 minutes in running buffer [10 mM HEPES pH 7.4, 150 mM NaCl, 3 mM EDTA, 0.005% Surfactant 20 (Biacore Inc.)]. The samples were then monitored for their dissociation over 60 minutes. […] The dissociation constant (Kd) was determined from kd/ka.
It should be noted that when the regeneration step was skipped, Rmax (the maximum binding amount of an analyte) was reduced ever time the measurement at each concentration was made. For this reason, Rmax was calculated by local fitting for each concentration during analysis. […]

[2] = Activity measurement by means of fluorescent biotin (method of Kada et al.); format: binding; conditions: room temperature
Experimental: By means of fluorescent biotin, tamavidin 2 was measured for its biotin-binding activity according to the method of Kada et al. (Biochim. Biophys. Acta., 1427: 44-48, (1999)). Solutions were prepared to contain the purified TM2 at stepwise concentrations from 0 pmol to 486 pmol in 200 μl assay buffer (50 mM NaH2PO4, 100 mM NaCl, 1 mM EDTA (pH 7.5)). These solutions were each mixed with 50 μL (1 nmol) of a 20 pmol/μL fluorescent biotin solution (biotin-4-fluorescein; Molecular Probe) and allowed to stand at room temperature for 10 minutes, followed by measuring the fluorescence intensity with a Las-3000 system (FUJIFILM). As a result, 0.274 nmol of TM2 was bound to nmol of fluorescent biotin. Namely, 3.6 mol of fluorescent biotin was bound to 1 mol of tamavidin. […] In the case of streptavidin, 3.4 mol of fluorescent biotin was bound per mol of streptavidin.

salmon sperm DNA = assay: Test for non-specific binding to DNA (slot blot, antibody detection); conditions: 25 μg/mL protein, salmon sperm DNA 10 μg to 0.3 μg on membrane
Experimental: TM2 was analyzed for its non-specific binding to DNA. Serial dilutions of salmon sperm DNA (10 μg to 0.3 μg) in 2×SSC buffer were alkali-denatured and adsorbed onto a Hybond N+ membrane (Amersham Biosciences) using Bio-Dot SF (BIO-RAD). The membrane was blocked with 5×Denhardt's solution (0.1% BSA, 0.1% Ficoll, 0, 1% polyvinylpyrrolidone) and then immersed in a 25 μg/mL TM2, streptavidin or avidin solution at room temperature for 90 minutes. The membrane was then washed three times with TTBS buffer (TBS buffer containing 0.05% Tween 20) at room temperature for 5 minutes. The membrane was blocked with TBS buffer containing 0.5% skimmed milk and 0.01% Tween 20 for 1 hour. The primary antibodies used were rabbit anti-TM2 antibody (purified as described above) for TM2, rabbit anti-streptavidin antibody (SIGMA) for streptavidin, and rabbit anti-avidin antibody (Abcam) for avidin, which were diluted to give the same antibody titer before use. Antigen-antibody reaction with each primary antibody was performed overnight at room temperature. […] The membrane was washed three times with TTBS buffer at room temperature for 5 minutes, and then developed with an Alkaline Phosphatase substrate kit II, vector Black (Funakoshi Co., Ltd., Japan), followed by quantification with a Las-3000 system (FUJIFILM).

[3] = Heat resistance: protein stability (heating, SDS-PAGE band quantification); format: physicochemical; conditions: for tetramer dissociation upon addition of biotin: biotin added, after treatment at 95° C.; for heat resistance higher than that of streptavidin: difference of 50% band-intensity temperatures; for temperature which caused a 50% reduction in protein band intensity: heated 20 minutes, soluble protein, SDS-PAGE, no biotin; for heat resistance higher than in streptavidin (summary statement): summary in disclosure
Experimental: (§1) 0.2 μg/μL TM2 and 0.2 μg/μL streptavidin were heated in 10 μL (2 μg) volumes at room temperature, 50° C., 60° C., 70° C., 80° C., 90° C. or 99° C. for 20 minutes, followed by centrifugation at 15000 rpm for 10 minutes. Each supernatant (soluble protein) was suspended in an equal volume of 2×SDS sample buffer (100 mM Tris-HCl pH 6.8, 12% 2-mercaptoethanol, 2% SDS, 20% glycerol), heated at 95° C. for 10 minutes and then analyzed by SDS-PAGE. Protein bands were detected by CBB staining. Using a Las-3000 system (FUJIFILM), a calibration curve was prepared based on quantification markers (LMW ELECTROPHORESIS CALIBRATION KIT; Pharmacia Biotech) and used to quantify the protein bands. The temperature which caused a 50% reduction in protein band intensity was 71° C. for streptavidin, whereas it was 87° C. for tamavidin 2.
as §1, with “Purified tamavidin 1 at a concentration of 0.2” for “0.2”, “was” for “TM2 and 0.2 μg/μL streptavidin were”, “As a result, the” for “The”, “76°” for “71° C. for streptavidin, whereas it was 87°”, “1.” for “2.”

[4] = Heat resistance: fluorescent biotin-binding activity of heated biotin-binding proteins
Experimental: Based on the property of fluorescent biotin to lose its fluorescence intensity when bound to a biotin-binding site in a biotin-binding protein, tamavidin 2 was compared with streptavidin and avidin for biotin-binding capacity under high temperature conditions.
About 0.25 μg/μL TM2 and streptavidin were heated at room temperature, 50° C., 60° C., 70° C., 80° C. or 90° C. for 20 minutes. Solutions were prepared to contain the heat-treated TM2 or streptavidin at stepwise concentrations from 0 μL to 27 μL in 150 μL assay buffer (50 mM NaH2PO4, 100 mM NaCl, 1 mM EDTA (pH 7.5)). These solutions were each mixed with 50 μL (250 pmol) of a 5 pmol/μL fluorescent biotin solution (biotin-4-fluorescein; Molecular Probe) and allowed to stand at room temperature for 20 minutes, followed by measuring the fluorescence intensity with a Las-3000 system (FUJIFILM).
Heat resistance test on the biotin-binding proteins was accomplished as follows. About 0.25 μg/μL biotin-binding protein was heated at room temperature, 50° C., 60° C., 70° C., 80° C. or 90° C. for 20 minutes. Solutions were prepared to contain the heated biotin-binding protein at stepwise concentrations from 0 μL to 12 μL in 150 μL assay buffer. These solutions were each mixed with 50 μL (100 pmol) of a 2 pmol/μL fluorescent biotin solution and allowed to stand at room temperature for 20 minutes, followed by measuring the fluorescence intensity at Ex=460 nm and Em=525 nm with an Infinite M200 (TECAN).

[5] = Fluorescent biotin-binding activity of tamavidin 1 after heat treatment at 70° C.; conditions: supernatant treated at 70° C. for 10 minutes, incubation at room temperature
Experimental: Fluorescent biotin-binding activity was measured for tamavidin 1 in the above centrifuged supernatant after heat treatment at 70° C. The same procedure as used for tamavidin 2 was repeated for this purpose. Incubation with fluorescent biotin was performed at room temperature.

[6] = 1:1 binding model, biotin-BSA ligand

Dissociation rate constant kd [1, 6] [s⁻¹] | Kd ([1]; determined from kd/ka, read-out: Dissociation constant Kd) [pM] | change in binding to fluorescent biotin compared to the room temperature value ([4]; heated at 70° C. or below, 20 minutes) | retained fluorescent biotin-binding activity ([4]; heated at 80° C., 20 minutes) [%] | binding to fluorescent biotin after heat treatment [5] | Molecule | Association rate constant ks [1, 6] [M⁻¹ s⁻¹] | amount of TM2 bound to nmol of fluorescent biotin ([2]; 1 nmol fluorescent biotin added) [nmol] | fluorescent biotin bound per mol of protein ([2]; 10 minutes) [mol] | non-specific binding to DNA (staining intensity versus DNA concentration) (salmon sperm DNA) | tetramer dissociation upon addition of biotin [3] | heat resistance higher than that of streptavidin [3] [°C] | temperature which caused a 50% reduction in protein band intensity [3] [°C] | heat resistance higher than in streptavidin (summary statement) [3] [°C] | temperature which caused a 50% reduction in fluorescence intensity decrement compared to the unheated sample ([4]; free protein, heated 20 minutes) [°C]
6.83e-06 | 7.43 | no change | 82 | – | Tamavidin 2: biotin-binding protein (SEQ ID NO: 4) from Pleurotus cornucopiae var. citrinopileatus, recombinant from E. coli, tetramer (protein, listed as Pleurotus cornucopiae, tetramer) MSDVQSSLTGTWYNELNSKMELTANKDGTLTGKYLSKVGDVYVPYPLSGRYNLQPPAGQGVALGWAVSWENSKIHSATTWSGQFFSESSPVILTQWLLSSSTARGDVWESTLVGNDSFTKTAPTEQQIAHAQLHCRAPRLK | 919000 | 0.274 | 3.6 | not strongly affected by DNA concentration | tetramer dissociation was not observed | ≥ 15 | 87 | ≥ 10 | 85
– | – | – | – | found to bind to fluorescent biotin | Tamavidin 1: biotin-binding protein (SEQ ID NO: 2) purified from the edible mushroom Pleurotus cornucopiae var. citrinopileatus; recombinant from E. coli (protein, listed as Pleurotus cornucopiae) MKDVQSLLTGTWYNELGSTMNLTANKDGSLTGTYHSNVGEVPPTYHLSGRYNLQPPSGQGVTLGWAVSFENTSANVHSVSTWSGQYFSEPAEVILTQWLLSRSSEREDLWQSTHVGHDEFSKTKPTKEKIAQAQLLRRGLKFE | – | – | – | – | tetramer dissociation was not observed | 5 | 76 | 5 | –
